From the supplement of paper PMC9170038

Test system: MS2 coat protein
Experiment: apparent KD of MS2 coat protein; designed switch direction (-1 OFF switch, 1 ON switch): -1; higher = weaker reporter binding
Summary of the method: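 On Illumina chips, designed RNA switches with common flanks were made by stalled E. coli RNA polymerase. Titrations with SNAP-549-labelled MS2 coat protein, doubling from 0.7 or 1.5 nM to 3 µM, were done with no input, with 200 uM small-molecule ligand, or with an oligonucleotide input. Apparent KD is the median per design over clusters, from curve fits of normalised cluster fluorescence.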

[1] = input ligand: microRNA oligo, concentration not stated
[2] = Eterna round: R95, input ligand: microRNA oligo, concentration not stated
[3] = Eterna round: R95, input ligand: FMN 200 uM
[4] = Eterna round: R95, input ligand: none

Sequence | apparent KD of MS2 coat protein (input ligand: FMN 200 uM) | apparent KD of MS2 coat protein [1] | apparent KD of MS2 coat protein (input ligand: none) | apparent KD of MS2 coat protein [2] | apparent KD of MS2 coat protein [3] | apparent KD of MS2 coat protein [4]
GCGCCAUCGUGAGAUGGCGUAUAUACAUGAGGAUCACCCAUGUAGGAUAUCGAUUGCUUUGCAGUCGAGAAGGGCAAGGUAUUU [JL ENG3 3.91] (Eterna round: R96, puzzle: Exclusion NG 3) | 34 nM | 25.5 nM | 33.8 nM |  |  | 
UAGCAACGAGGAUAUGCGGGCCUGAACCUAAAGUCGACCUUACAUGAGGAUCACCCAUGUAGAAGGCGUAGUGU [Eternabot (L2) Solution 71] (Eterna round: R97, puzzle: Exclusion 2) | 16.8 nM |  | 18.3 nM |  |  | 
ACCUAACAUGAGGAUCACCCAUGUGAGGAUAUGUACAUCGGCUCGCGAAAGUGACCGAACAGAAGGUACAUGGU [EX1 A.26] (Eterna round: R97, puzzle: Exclusion 1) | 17.8 nM |  | 19.1 nM |  |  | 
GGGCUGUCAGGAUAUGGGCCCGGGCCCGAAAGGGCCCGGGCCCAGAAGGGACAUGAGGAUCACCCAUGUGGCCC [-51.3, -50.3 kcal, A 22%] (Eterna round: R97, puzzle: Exclusion 4) | 43 nM |  | 37.7 nM |  |  | 
CCCAUGUCAGGAUAUUAAUUGAGCAGGAAGCCCUGUUCACUUGAGAAGGGACAUGAGGAUCACCCAUGUAAAAC [Aesvea] (Eterna round: R97, puzzle: Exclusion 4) | 30.1 nM |  | 384 nM |  |  | 
UUGCCACAUGAGGAUCACCCAUGUGAGGAUAUGGCCCGCCCGGCGUGUGCUGGUUCUGUCAGAAGGCGCGUGGG [salish99_ex1_r4_030] (Eterna round: R97, puzzle: Exclusion 1) | 73 nM |  | 33.1 nM |  |  | 
AAUACAAGCUAUUGAUCCCACAUGAGGAUCACCCAUGUAGAUGGCGGUGACACCUCCAUUACGAUAGCUCGUCUUAU [Sensor-V1 #57] (Eterna round: R97, puzzle: Sensor, turn-off variant 1) | 321 nM |  | 347 nM |  |  | 
GCUGCGCGAGGAUAUGCGGUUCGGGCGGUGGCCGCUGGCGGACAUGAGGAUCACCCAUGUAGAAGGCGUGCGGG [Apr-15 SS2-61] (puzzle: Exclusion 2) |  |  |  | 14.9 nM |  | 
GUGCUAUGAGGAUAUACGUUGGUGGGCAUCUGUGUGCUCCUACAUGAGGAUCACCCAUGUAGAAGGCAUGUCAC [LRO-Excl2-20] (Eterna round: R96, puzzle: Exclusion 2) | 22.9 nM | 9.33 nM | 14.1 nM |  |  | 
UUAAAGGCAGGAUAUACAUUUUUUUUAUUAUCCUCAUUAUUACAUGAGGAUCACCCAUGUAGAAGGGCCAAAUU [Mat - Exclusion 2 - Mod of Hog - D85] (puzzle: Exclusion 2) |  |  |  | 57.6 nM |  | 
CGCGGAUGUAUAUGUCCGCACAUGAGGAUCACCCAUGUAAUAUAAGAUGAUAUUAAACAAAUUUUUGCUUGUCAGUU [Eternabot (L1) Solution 37] (Eterna round: R97, puzzle: Sensor, turn-off variant 1) | 31 nM |  | 38.2 nM |  |  | 
CUUCAGUCAGGAUAUCUGCACGCUGGUGAGACCGGACGGAAGGAGAAGGGACAUGAGGAUCACCCAUGUAAAGC [Xesoar] (puzzle: Exclusion 4) |  |  |  | 15.7 nM |  | 
ACAUUACAUGAGGAUCACCCAUGUGAGGAUAUGGAGCGAUAGUGUCCUGUCGCGUACACCAGAAGGCGCGGGUG [1st #49] (Eterna round: R97, puzzle: Exclusion 1) | 242 nM |  | 271 nM |  |  | 
AAUAACAAGCUGAUCCUCCACAUGAGGAUCACCCAUGUGUUCGUCUUGUAAAGUACUAUCACGAAAGUGAUAGUACA (Eterna round: R97, puzzle: Sensor, turn-off variant 1) | 984 nM |  | 1630 nM |  |  | 
GUGGUACAUGAGGAUCACCCAUGUGAGGAUAUAGUCGGCUGGUGGUCGCGGGUGGUGGCUAGAAGGUGCGUGCG [-19.3, -16.9 kcal, A 18%] (Eterna round: R97, puzzle: Exclusion 1) | 171 nM |  | 179 nM |  |  | 
AUGAGGUUAGGAUAUACAUGAGGAUCACCCAUGUUGAAAGGUUAGGUAGGCGGAGCUGGUAGAAGGAACGGAGC [JR_Exclu3_Sub056] (puzzle: Exclusion 3) |  |  |  | 27.8 nM |  | 
CCUUUGUCAGGAUAUCAGAACGCGCUCGUAGGGAGCGCAAAUGAGAAGGGACAUGAGGAUCACCCAUGUAAAGA [Gequleon] (puzzle: Exclusion 4) |  |  |  | 43.6 nM | 204 nM | 48.2 nM

Sequence | apparent KD of MS2 coat protein (input ligand: FMN 200 uM) | apparent KD of MS2 coat protein [1] | apparent KD of MS2 coat protein (input ligand: none) | apparent KD of MS2 coat protein [2] | apparent KD of MS2 coat protein [3] | apparent KD of MS2 coat protein [4]
AGAAGUAGUAACCGAUCCUACAUGAGGAUCACCCAUGUAGCUAGACGUGCACGCGAGGCUCGUCAGACUACCAGAUG [salish99_TOv1_r3_028] (puzzle: Sensor v3, turn-off variant 1) |  |  |  | 133 nM | 210 nM | 289 nM
GCAGCACAUGUAGGAUAUCUGCACGUGUAGUGCAGAGAAGGACAUGAGGAUCACCCAUGUAAUUAAGAUCAAUUAUUAAGCUGC [ENG1/3-C3] (Eterna round: R96, puzzle: Exclusion NG 1) | 519 nM | 42.4 nM | 49.1 nM |  |  | 
GGGCCCGGUGUGAGGAUAUGCUCGGGUAAAUCUGGGUAGAAGGCACAUGAGGAUCACCCAUGUAAGCCGGGCCC [-34.4, -32.3 kcal, A 23%, 7bis-0] (Eterna round: R97, puzzle: Brourd's mod of Exclusion 4) | 15.2 nM |  | 19.3 nM |  |  | 
GCGCACCUACCAAAAGGUAGGUCAACAUGAGGAUCACCCAUGUAGGAUAUCGAUUGCUUUGCAGUCGAGAAGGACAUGAUGCGC [JL ENG3 3.80 Mod 13] (Eterna round: R96, puzzle: Exclusion NG 3) | 111 nM | 36.3 nM | 36.7 nM |  |  | 
AGAAGUAGAAACCGAUCCUACAUGAGGAUCACCCAUGUAGCAAGACGUGCACGCGAAGCUCGUCAGACUACCAGAAU [salish99_TOv1_r3_006] (puzzle: Sensor v3, turn-off variant 1) |  |  |  | 193 nM | 340 nM | 347 nM
UUAAUUCUGAUUCUUGAAAUACAUGAGGAUCACCCAUGUUCACAGGAUAUUGAUUAUGUUAGUUACAAGAAGGGUGUAUCAUAU [JR_ExcNG3_Sub038] (Eterna round: R96, puzzle: Exclusion NG 3) | 38.9 nM | 26.8 nM | 30.6 nM |  |  | 
UGCGGUUGAGGAUAUACGUAGAACUAGGUUCAUGUAAAACUACAUGAGGAUCACCCAUGUAGAAGGCAAUCGCU [Mat - Exclusion 2 - JL Mod - D41] (Eterna round: R97, puzzle: Exclusion 2) | 23.9 nM |  | 20.3 nM |  |  | 
AGGUGCUUCUGGAAACAUGAGGAUCACCCAUGUUGAGUUAGCGAGGAUAUCGGUAACAAUUGUUAUGAGAAGGCGCAAACCAGA [Ex NG3 #36] (Eterna round: R96, puzzle: Exclusion NG 3) | 17 nM | 12.5 nM | 20.7 nM |  |  | 
GUAGAGUCAGGAUAUACGAGAUCGAAAGAUCGGCGAUCCAAACAUGAGGAUCACCCAUGUAGAAGGGACUCUAC [Eli x2 4.004] (Eterna round: R97, puzzle: Exclusion 2) | 579 nM |  | 41 nM |  |  | 
AAGAAAGGUGACAUGGGUGACAUGAGGAUCACCCAUGUUACAAGCUUGUUGCUCGUCUUAUAAUUAACCCAUGUCAU [LRO Sensor-off var1-19 mod of Stov1-13-A1 by Brourd] (Eterna round: R97, puzzle: Sensor, turn-off variant 1) | 55.3 nM |  | 64.6 nM |  |  | 
GGCAGACAUGAGGAUCACCCAUGUCAGGAUAUGGUGCGAUCGUCGAUAGACGAUAGCACCAGAAGGGACAUGCC [Mat - Exclusion 1 - Eli Mod - D3] (Eterna round: R97, puzzle: Exclusion 1) | 39.7 nM |  | 21.4 nM |  |  | 
UUAUUAUAUGUAGGAUAUGCGUAUUAUUGUUAUGCAGAAGGACAUGAGGAUCACCCAUGUAUAUUAUUGUUGUAUAUUAUAUAU [Title] (Eterna round: R96, puzzle: Exclusion NG 1) |  | 20.7 nM |  |  |  | 
CCUCAGAUGUAGGAUAUCGCCCAGACAUUGCGGCGAGAAGGACAAACAUGAGGAUCACCCAUGUUAGUUUAGCA [Eternabot (L2) Solution 92] (Eterna round: R97, puzzle: Exclusion 6) | 257 nM |  | 32.3 nM |  |  | 
AGCGCCAUCGUGAGAUGGCGUAUUACAUGAGGAUCACCCAUGUAGGAUAUCGAUUGCUUUGCAGUCGAGAAGGACAUGUUCUUU [JL ENG3 3.80 Mod D] (Eterna round: R96, puzzle: Exclusion NG 3) | 27.1 nM | 19.3 nM | 23.4 nM |  |  | 
CCAUGCAGUGUGAGGAUAUGCUGGUCCUUGGAUCAGCAGAAGGCACAUGAGGAUCACCCAUGUGAAUAGCGUGG [Mat - Exclusion 4 - JL Mod - D84] (puzzle: Brourd's mod of Exclusion 4) |  |  |  | 36.6 nM |  | 
UCCGUGUCAGGAUAUAACUGGUCGAGCGCAGAAGCGUCCUGUUAGAAGGGACAUGAGGAUCACCCAUGUUUAAC [Eternabot (L1) Solution 74] (Eterna round: R97, puzzle: Exclusion 4) | 213 nM |  | 38.5 nM |  |  | 
UUUAGUUUAGGAUAUGUAGAUUUUAACAUGAGGAUCACCCAUGUAGAUCCUGAAUUAACUACAGAAGGGAACAUUU [Mod of Brourd 14 - Jieux - Exclusion 5] (Eterna round: R97, puzzle: Exclusion 5) | 124 nM |  | 154 nM |  |  | 
